{"source": "patent US20100322950", "key": {"[1]": {"target": "tissue inhibitor of matrix metalloproteinase-1 (TIMP-1) (UniProt P01033)", "sequence (P01033 24-207)": "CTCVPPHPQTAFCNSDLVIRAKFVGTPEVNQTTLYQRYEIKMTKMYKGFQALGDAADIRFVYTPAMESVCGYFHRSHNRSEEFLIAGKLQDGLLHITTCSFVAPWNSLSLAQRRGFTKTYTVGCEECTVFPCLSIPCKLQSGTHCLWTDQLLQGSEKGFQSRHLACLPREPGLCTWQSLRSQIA"}, "[2]": {"tested_on": "recombinant human osteopontin (OPN), full-length", "sequence (chain, as listed by the source)": "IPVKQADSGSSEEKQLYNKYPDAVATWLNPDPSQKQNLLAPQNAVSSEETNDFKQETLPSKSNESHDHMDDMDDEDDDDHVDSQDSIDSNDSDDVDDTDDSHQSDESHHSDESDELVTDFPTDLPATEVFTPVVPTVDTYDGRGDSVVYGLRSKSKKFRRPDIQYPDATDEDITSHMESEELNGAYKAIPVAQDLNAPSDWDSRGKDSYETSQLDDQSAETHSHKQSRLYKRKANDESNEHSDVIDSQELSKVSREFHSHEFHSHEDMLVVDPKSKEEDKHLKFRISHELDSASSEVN"}}}
{"substance": "human matrix metalloproteinase-9 (MMP-9) (Calbiochem)", "values": [{"measurement": "MMP-9 cleavage of OPN (formation of the OPN-5 kD fragment), TIMP-1 added to the reaction", "setting": "[1]", "result": "could not be detected in cleavage reactions partially inhibited by the concomitant addition of EDTA, a naturally-occurring inhibitor of MMP-9 (tissue inhibitor of matrix metalloproteinase-1, or TIMP-1), or the hydroxamate MMP-9 inhibitor I"}, {"measurement": "in vitro proteolytic cleavage of OPN (SDS-PAGE, N-terminal microsequencing, western blot)", "setting": "[2]", "result": "Recombinant MMP-9 cleaved OPN at two predominant sites in vitro, residues 166 and 210, resulting in 4 identified fragments"}]}
